According to patent US20200121803A1 (published 2020):

T1: human CD98 on the cell surface (human)
T1 chain: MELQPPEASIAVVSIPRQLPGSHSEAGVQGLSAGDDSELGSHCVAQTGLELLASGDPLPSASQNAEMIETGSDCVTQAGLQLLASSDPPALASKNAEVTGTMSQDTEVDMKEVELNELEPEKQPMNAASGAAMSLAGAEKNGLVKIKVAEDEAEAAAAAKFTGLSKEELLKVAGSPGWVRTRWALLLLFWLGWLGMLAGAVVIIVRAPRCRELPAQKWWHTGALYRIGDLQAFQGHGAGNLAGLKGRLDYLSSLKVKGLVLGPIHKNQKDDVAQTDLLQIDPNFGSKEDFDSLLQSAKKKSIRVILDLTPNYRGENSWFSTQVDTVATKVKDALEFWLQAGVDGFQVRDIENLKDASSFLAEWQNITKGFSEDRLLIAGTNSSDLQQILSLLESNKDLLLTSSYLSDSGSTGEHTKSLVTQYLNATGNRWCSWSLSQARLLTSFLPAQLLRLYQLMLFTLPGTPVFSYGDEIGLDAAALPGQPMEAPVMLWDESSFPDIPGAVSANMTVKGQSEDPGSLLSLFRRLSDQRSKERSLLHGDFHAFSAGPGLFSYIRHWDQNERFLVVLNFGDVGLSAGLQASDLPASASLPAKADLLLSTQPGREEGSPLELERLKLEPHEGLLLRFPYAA

T2: human CD98 on human cancer cell lines (EBC-1, H2170, Molt-4) (human)
T2 chain: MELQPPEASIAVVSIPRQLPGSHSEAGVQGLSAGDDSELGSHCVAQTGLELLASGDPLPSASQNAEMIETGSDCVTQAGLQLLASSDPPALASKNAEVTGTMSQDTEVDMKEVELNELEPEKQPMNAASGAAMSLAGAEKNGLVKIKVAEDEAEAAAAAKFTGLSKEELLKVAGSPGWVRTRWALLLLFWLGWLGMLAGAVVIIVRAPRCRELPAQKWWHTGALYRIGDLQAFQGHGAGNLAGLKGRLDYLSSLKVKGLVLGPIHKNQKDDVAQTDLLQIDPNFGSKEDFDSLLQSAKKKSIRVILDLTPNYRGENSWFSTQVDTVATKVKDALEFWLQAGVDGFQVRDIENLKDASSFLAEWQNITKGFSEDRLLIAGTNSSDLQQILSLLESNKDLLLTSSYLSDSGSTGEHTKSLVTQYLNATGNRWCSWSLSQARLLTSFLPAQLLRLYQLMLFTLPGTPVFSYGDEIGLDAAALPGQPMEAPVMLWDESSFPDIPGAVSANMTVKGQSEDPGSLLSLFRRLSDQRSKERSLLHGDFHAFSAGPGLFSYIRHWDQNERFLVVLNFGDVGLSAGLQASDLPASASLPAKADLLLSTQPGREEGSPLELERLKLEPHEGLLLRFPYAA

B1: ChAb1-CZ (other)
VH: EVKLVESGGGLVQPGGSLRLSCATSGFTFTDYYMSWVRQPPGKALEWLGFIRNPANVYTTEYSASVKGRFTISRDNSQSILYLQMNTLRAEDSATYYCARASYGNSEGWFAYWGQGTLVTVSA
VL: DIVMSQSPSSLAVSVGEKVTMSCKSSQNLLYNNNQKNYLAWYQQKPGQSPKLLIYWASTRESGVPDRFTGSGSGTDFTLTISSVKAEDLAVYYCQQYYSYPRTFGGGTKLEIK
modifications: synthon CZ on reduced interchain Cys of the constant regions (sites not numbered)
B2: ChAb3-CZ (other)
VH: EVKLVESGGGLVQPGNSLRLSCATSGFTFIDYYMSWVRQSPGKALEWLGFIRNKANGYTTEYSASVKGRFTISRDNSQSILYLQMDTLRAEDSATYYCTRDRPAWFVYWGQGTLVTVSA
VL: DIVMSQSPSSLAVSVGEKVTMSCKSSQSLLYSSNQKNYLAWYQQKPGQSPKLLIYWASTRESGVPDRFTGSGSGTDFTLTFSSVRAEDLAVYYCQQYYSYPYTFGGGTKLEIK
modifications: synthon CZ on reduced interchain Cys of the constant regions (sites not numbered)
B3: ChAb5-CZ (other)
VH: EVKLVESGGGLVQPGGSLRLSCATSGFTFTDYYMTWVRQPPGKALEWLGFIRNKANGYTTEYSASVKGRFTISRDNSLSILYLQMNTLRAEDSATYYCARASYVNSEGWFAYWGQGTLVTVSA
VL: DIVMSQSPSSLAVSVGEKVTMSCKSSQSLLYSSNQKNYLAWYQQKLGQSPKLLIYWASTRESGVPDRFTGSGSGTDFTLTISSVKAEDLAVYYCQHYYSYPRTFGGGTKLEIK
modifications: synthon CZ on reduced interchain Cys of the constant regions (sites not numbered)
B4: ChAb8-CZ (other)
VH: EVQLVESGGGLVQPGRSLKLSCAASGFTFSDYAMAWVRQAPKKGLEWVASIIYDGRGTYYRDSVKGRFTISRDNAKSTLYLQMDSLRSEDTATYYCARQGDGTYYYWGYFDYWGQGVMVTVSS
VL: DIVMTQSPSSLAVSAGETVTINCKSSQSLLSSGNQKNYLAWYQQKPGQSPKLLIYWASTRQSGVPDRFIGSGSGTDFTLTINSVQAEDLAIYYCQQYYDTPYTFGAGTKLELK
modifications: synthon CZ on reduced interchain Cys of the constant regions (sites not numbered)
B5: ChAb10-CZ (other)
VH: EVQLVESGGGLVQPGRSLKLSCAASGFTFSDYAMAWVRQAPKKSLEWVATIIYDGRGTYCRDSVKGRFTISRDNAKSTLYLQMDSLRSEDTATYYCARQGDGTYHYWGYFDYWGQGVMVTVSS
VL: DIVMTQSPSSLAVSAGETVTINCKSSQSLLSSGNQKNYLAWYQQKPGQSPKLLIYWASTRQSGVPDRFIGSGSGTDFTLTISSVQAEDLAIYYCQQYYDTPYTFGAGTKVDLK
modifications: synthon CZ on reduced interchain Cys of the constant regions (sites not numbered)
B6: ChAb11-CZ (other)
VH: EVQLVESGGGLVQPGRSLKLSCAASGFTFSDYAMAWVRQAPKKGLEWVAGIIYDGRGTYYRDSVKGRFTISRDNAKSTLYLQMDSLRSEDTATYYCARQGDGTYYYWGYFDYWGQGVMVTVSS
VL: DIVMTQSPSSLAVSAGETVTINCRSSQSLLSSGNQKNYLAWYQQKPGQSPKLLIYWASTRQSGVPDRFIGSGSGTDFTLTISSVQAEDLAIYYCQQYYDTPYTFGAGTKLELK
modifications: synthon CZ on reduced interchain Cys of the constant regions (sites not numbered)
B7: ChAb12-CZ (other)
VH: EVQLVESGGGLVQPGRSLKLSCAASGFTFSDYAMAWVRQAPKKGLEWVASIIYDGRGTYYRDSVKGRFTISRDNAKSTLYLQMDSLRSEDTATYYCARQGDGTYYYWGSFDYWGQGVMVTVSS
VL: DIVMTQSPSSLAVSAGETVTINCKSSQSLLSSGNQKNYLAWYQQKPGQSPKLLIYWASTRQSGVPDRFIGSGSGTDFTLTISSVQAEDLAIYHCQQYYDTPYTFGAGTKLELK
modifications: synthon CZ on reduced interchain Cys of the constant regions (sites not numbered)
B8: ChAb13-CZ (other)
VH: QVQLKESGPGLVQPSQTLSLTCTVSGFSLSSYGVIWVRQPPGKGLEWMGIIWANGNTNYNSALKSRLSISRDTSKSQVYLKMNSLQTEDTATYYCARHYYDGTHYYGYFDYWGQGVMVTVSS
VL: DTVMTQTPSSQAVSAGEKVTMSCKSSQSLLYSENKKKYLAWYQQKPGQSPKLLIYWASTRESGVPDRFIGSGSGTDFTLTISSVQAEDLAVYYCQQYYNFPYTFGAGTKLELK
modifications: synthon CZ on reduced interchain Cys of the constant regions (sites not numbered)
B9: ChAb15-CZ (other)
VH: EVQLVESGGGLVQPGRSLKLSCAASGFTFSDYTMAWVRQAPKKGLEWVATIIYDGRGTYYRDSVKGRFTISRDNAKSTLYLQMDSLRSEDTATYYCARQSDGTYYYWGYFDYWGQGVMVTVSS
VL: DIVMTQSPSSLAVSAGETVTINCKSSQSLLFSGNQKNYLAWYQQKPGQSPKLLIYWASTRQSGVPDRFIGSGSGTDFTLTIRSVQAEDLAIYYCQQYYDSPYTFGAGTKLELK
modifications: synthon CZ on reduced interchain Cys of the constant regions (sites not numbered)
B10: ChAb3-CZ-DAR2 (anti-CD98 chimeric chAb3 conjugated to Bcl-xL inhibitor synthon CZ, HIC-purified DAR2 species) (antibody, human IgG1, V domains shown)
VH: EVKLVESGGGLVQPGNSLRLSCATSGFTFIDYYMSWVRQSPGKALEWLGFIRNKANGYTTEYSASVKGRFTISRDNSQSILYLQMDTLRAEDSATYYCTRDRPAWFVYWGQGTLVTVSA
VL: DIVMSQSPSSLAVSVGEKVTMSCKSSQSLLYSSNQKNYLAWYQQKPGQSPKLLIYWASTRESGVPDRFTGSGSGTDFTLTFSSVRAEDLAVYYCQQYYSYPYTFGGGTKLEIK
modifications: Bcl-xL inhibitor synthon CZ conjugated to cysteines of the TCEP-reduced antibody (Method H); positions not given; Bcl-xL inhibitor synthon CZ conjugated to cysteines of the TCEP-reduced antibody (Method H); DAR 2.0 by MS; positions not given
B11: ChAb3-CZ-DAR4 (anti-CD98 chimeric chAb3 conjugated to Bcl-xL inhibitor synthon CZ, HIC-purified DAR4 species) (antibody, human IgG1, V domains shown)
VH: EVKLVESGGGLVQPGNSLRLSCATSGFTFIDYYMSWVRQSPGKALEWLGFIRNKANGYTTEYSASVKGRFTISRDNSQSILYLQMDTLRAEDSATYYCTRDRPAWFVYWGQGTLVTVSA
VL: DIVMSQSPSSLAVSVGEKVTMSCKSSQSLLYSSNQKNYLAWYQQKPGQSPKLLIYWASTRESGVPDRFTGSGSGTDFTLTFSSVRAEDLAVYYCQQYYSYPYTFGGGTKLEIK
modifications: Bcl-xL inhibitor synthon CZ conjugated to cysteines of the TCEP-reduced antibody (Method H); positions not given; Bcl-xL inhibitor synthon CZ conjugated to cysteines of the TCEP-reduced antibody (Method H); DAR 4.0 by MS; positions not given
B12: ChAb3-CZ-Broad DAR (anti-CD98 chimeric chAb3 conjugated to Bcl-xL inhibitor synthon CZ, unfractionated, DAR 4.1) (antibody, human IgG1, V domains shown)
VH: EVKLVESGGGLVQPGNSLRLSCATSGFTFIDYYMSWVRQSPGKALEWLGFIRNKANGYTTEYSASVKGRFTISRDNSQSILYLQMDTLRAEDSATYYCTRDRPAWFVYWGQGTLVTVSA
VL: DIVMSQSPSSLAVSVGEKVTMSCKSSQSLLYSSNQKNYLAWYQQKPGQSPKLLIYWASTRESGVPDRFTGSGSGTDFTLTFSSVRAEDLAVYYCQQYYSYPYTFGGGTKLEIK
modifications: Bcl-xL inhibitor synthon CZ conjugated to cysteines of the TCEP-reduced antibody (Method A); positions not given; Bcl-xL inhibitor synthon CZ conjugated to cysteines of the TCEP-reduced antibody (Method A); average DAR 4.1 by MS; positions not given

Key:
[1] = molecular target: T1, human CD98 on the cell surface; experiment: cell-based or functional assay
[2] = molecular target: T2, human CD98 on human cancer cell lines …; experiment: cell-based or functional assay

Binder | ADC potency, IC50 (nM), H146 (SCLC) growth inhibition [1] | ADC potency, IC50 (nM), H2170 (NSCLC) growth inhibition [1] | ADC potency, IC50 (nM), MOLT4 (leukemia) growth inhibition [1] | ADC potency, IC50 (nM), EBC (NSCLC), growth inhibition (CellTiter-Glo) [2] | ADC potency, IC50 (nM), H2170 (NSCLC), growth inhibition (CellTiter-Glo) [2] | ADC potency, IC50 (nM), MOLT4 (leukemia), growth inhibition (CellTiter-Glo) [2]
B1 | ~0.196 nM | 0.276 nM | 0.071 nM |  |  | 
B2 | 0.255 nM | ~0.171 nM | 0.026 nM |  |  | 
B3 | ~0.188 nM | 0.161 nM | 0.029 nM |  |  | 
B4 | 0.094 nM | 0.112 nM | 0.038 nM |  |  | 
B5 | 0.209 nM | 0.09 nM | 0.035 nM |  |  | 
B6 | 0.527 nM | 0.195 nM | 0.199 nM |  |  | 
B7 | 0.242 nM | 0.118 nM | 0.034 nM |  |  | 
B8 | 0.115 nM | 0.321 nM | 0.052 nM |  |  | 
B9 | 0.194 nM | 0.137 nM | 0.048 nM |  |  | 
B10 |  |  |  | 271 nM | 0.273 nM | 0.046 nM
B11 |  |  |  | 10.4 nM | 0.225 nM | 0.021 nM
B12 |  |  |  | 7.15 nM | 0.15 nM | 0.034 nM
